Reference: article PMC11172107

Target: T1, ArgR-His6 (Vibrio fluvialis 85003) (UniProt A0AAX2LJS0)
T1 sequence: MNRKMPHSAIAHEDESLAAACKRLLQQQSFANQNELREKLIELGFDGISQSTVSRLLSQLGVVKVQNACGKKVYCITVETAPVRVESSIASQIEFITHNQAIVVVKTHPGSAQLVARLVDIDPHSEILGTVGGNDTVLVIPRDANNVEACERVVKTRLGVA
Test: EMSA
Conditions: EMSA: 20 mM Tris/HCl pH 7.6, 50 mM KCl, 1 mM EDTA, 5% glycerol, 200 ng BSA, 500 ng dI-dC, 15 ng probe, 30 C 20 min; footprinting: 5.40 uM ArgR-His6, 40 uL …

Sequence: CCGCAGGCTCTTTAGAATTTCTTTAACGATGAAGTGAAATTCACTTTATCACCATGAATAACAATAAAAGTTTTCACCATATTTATTACAAGTCCTAAGCTTTATTCCACGAAATACGTTGCCATATTGAATAGTATTGCAATAAACGTTTTCTAAATGAGTGAATTGAGGTGTGGG (double strand) [arcD2 probe]
- binding: binds
